system: MS2 coat protein; assay: apparent KD of MS2 coat protein; higher = weaker reporter binding; settings: Eterna round: R107; input ligand: theophylline 20 uM
Experimental: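 RNA-MaP round R107: designed RNA switches with theophylline, tryptophan, arginine or FMN aptamers are transcribed on-chip within common flanks. They are titrated with SNAP-549-labelled MS2 coat protein in RNA-MaP buffer (100 mM Tris pH 7.5, 80 mM KCl, 4 mM MgCl2), without ligand or with the indicated ligand. Median apparent KD per design.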

Row | Sequence | apparent KD of MS2 coat protein [nM]
1 | GAUGCACAUGAGGAUCACCCAUGUCCUGAUACCAGAACGCGACUUUUCCCUUGGCAGCAGAAUUCACUUUUUUACAUUCAUACUG [theeternabot_sameState_MS2_Theo_A_11] | 30.6
2 | AUCCAUAGCCGAAGGAGCGCAGUAGGAUGACAUGAGGAUCACCCAUGUGUGUGAUGUGGAUUGCAGGUAGGUCGCGGAGUGGGUU [Exclusion - Arginine B (Freestyle 7)] | 124
3 | GAGCUGAUGUAGAGAUUUUAUUUCUGAGAUACCAGUACAGAAAUGUACCCUUGGCAGCUCAGCUUUACAUGAGGAUCACCCAUGU [Ex Theophylline A 16] | 17.8
4 | GAUCUGUCGGGUGAUACCAGCCUCGGCACAUCUCGUGCCGAACAUGAGGAUCACCCAUGUGGCCCUUGGCAGCACAUGACAAAUC [Regebece] | 652
5 | UUAUAUAUGCGAAGGAGCGGGAAAUAUAUAUAUAUAAUCCUAACAUGAGGAUCACCCAUGUCCCAGGUAGGUCGCGCAUAUAUGG [12.E] | 76.8
6 | GGUUGGUGUGGAGACAUAUUGAUUACUGAAGGAGCGGGAAUAAACCCAGGUAGGUCGCAGAGAUCCACAUGAGGAUCACCCAUGU [!0.P] | 42.8
7 | GGCACAUAGUCGGCCGCCACUAGUGGGAAAUGGGAGAACAUGAGGAUCACCCAUGUAGCGUAGCCUAGGACCGGGACUAUGUGCC [Elephant] | 172
8 | CGAUAUGGGACGGCCGCCACUAUUAUGUAACAAAAUAAACAUGAGGAUCACCCAUGUACAUGGGAUAGGACCGGGUCCUAUAACG [#22 Same State - Tryptophan B] | 42.5
9 | UAUUUGGUGCGCGAGUGUUGGAUAAUUGAUACCAGUGAAGAAGAGCGCCCUUGGCAGCGAAUCCUAACAUGAGGAUCACCCAUGU [5.T] | 55.3
10 | UUCAGCUAGUCGGCCGCCACUAUCUGAGGAUCACCCAGGUAAUCCUAACACUGCUUCGGCAGUGGUAGGACCGGGACUAGCUGAG | 26.3
11 | ACAUUUAACUGAAGGAGCGUGAAUAACAUGAGGAUCACCCAUGUAACUUAGAUGCUUAUUUCACAGGUAGGUCGCAGACUAAUGA [JR_ExcArginiB_Sub010] | 13.7
12 | AGAUUCGACACGGCCGCCACUCGUGGAGGAUUUCCGAGUGUCGAACAUGAGGAUCACCCAUGUACGAGGACCGGGUGUUGAGUCU [XTryp B #14] | 43.4
13 | GCUAGGUCUACGGCCGCCACUAGACGUGGGUAAGACAUGAGGAUCACCCAUGUACUACGGGCGCUUAGGACCGGGUAGACCUAGC [SSTB NP+V+V2 #17 +-Same Structure] | 187
14 | ACGACGCAUAGUGAUACCAGCACAACAUGAGGAUCACCCAUGUCACAUAUGUUGUAAUAAUGCCCUUGGCAGCACUAUGCGUCAG [SSTheo B #2] | 83.3
15 | UGAGAGGGCAGAAGGAGCGACAUGAGGAUCACCCAUGUCUCCCGUUAUGGGAGUUCUUUAGGUCAGGUAGGUCGCUGGCCUCUCA [#1 Exclusion - Arginine B Attempt #9 (Inspired by Omei)] | 135
16 | ACAUGAGGAUCACCCAUGUCAGGGCACGAUACCAGCUGAUCCGGUGGCCCUUGGCAGCGUGACGUGUGGUCAUGAGGAUCACCCG [wsmullin] | 642
17 | ACAUGAGGAUCACCCAUGUUCCUCGCCGAUACCAGUGAAGAAGAACGCCCUUGGCAGCGGAAAGAGUAUUUUGGAGAUGAGGUAC [6.X] | 134
18 | UGACAUUGCUCAGAUACCAGACAUGAGGAUCACCCAUGUGCCAAAUACGUACAAAUAAAUGUCCCUUGGCAGCUGAGCAAUGUCU [TheoBX 12 #MS2Left #Theo2] | 22.2
19 | GCAUCCUAGUCGGCCGCCACUGCAUGUUGGCAGUGCUGCAACAUACAUGAGGAUCACCCAUGUUGCAGGACCGGGACUAGGAUGC [(Trp1)-(MT2)''-(T1)'-(MT2)'-(Ms2)-(Trp2)_Design1] | 28.7

same assay, conditions: Eterna round: R107; input ligand: theophylline 2 mM

Row | Sequence | apparent KD of MS2 coat protein [nM]
20 | AAAAGUAGGUCCAAUAAAACUACAUGUGAAGGAGCGCGCGAAAGCGCAGGUAGGUCGCACAUGAGGAUCACCCAUGUCCUACAAA [MAT - Exclusion Arginine A - Mod of Eli - D6] | 65.7
21 | UUAUUUAACGGAAGGAGCGCGGAAAUAAAAGUGGGUAAACAUGAGGAUCACCCAUGUAAACCGCAGGUAGGUCGCCGAUAUUUAU [AstrosEXyARgB#2] | 95.4
22 | CAUGUUAGGGCGGCCGCCACUGUGGCUACGGUACAUGAGGAUCACCCAUGUUUGUGGUUGAUCUACAGGACCGGGCCCUGACACG [Erarusge] | 679
23 | ACAUGAGGAUCACCCAUGUAAAUAACGGAAGGAGCGUGCAAAAGCACAGGUAGGUCGCCGAUAUAAAUAUUGGGUAAUAUAUUAU [ExyArgA#1] | 28.2
24 | GUAAUAUACAGAAGGAGCGUGAUAGUGAGCUUGUACAACAUGAGGAUCACCCAUGUAUAAUCACAGGUAGGUCGCUGUAUAGGGU [Arg B SS t2] | 15.4
25 | GGGACAUGAGGAUCACCCAUGUACCGGUCCCGAGGACCGGUACGGCCGCCACUCGAUGACCUCAUAGUCUGCCUGAGCAGCAGAC [Abebeti] | 140
26 | AGCCACUCGAGUGAUCCUCACGAGUGGCAACGAGGACCGGUACGGCCGCCACUCGAAUAAACAUGAGGAUCACCCAUGUAAUAAU [T''-M-T'-T-MS2] | 683
27 | AUGCAUAGCACGGCCGCCACUCAAAUUAAACAUGAGGAUCACCCAUGUAACAUGGAUAAAAUAAAGAGGACCGGGUGAAAUGCAA [JR_SSTryptoB_Sub010] | 33.7
28 | UCGGGCAGAGCGGCCGCCACUGUAUGGCGUGCGGAUGACGGAACAUGAGGAUCACCCAUGUUGUUUAGGACCGGGCUUGCCGCGA [cocmullin] | 11.5
29 | GGUCGCCAACAUGGGUCGGUGAAAUGGGAAGGAGCGAGCGAGAGCUCAGGUAGGUCGCCCAAACAUGAGGAUCACCCAUGUAAUA [SSArg-A #28 UUU adds V2] | 74.8
30 | UCACGACGGAUGGAUACCAGCGACAUGAGGAUCACCCAUGUAUGAGGAUCAGCCAUGUUAUGCCCUUGGCAGCCACGAAGGUCAU [YYYMULLIN] | 195
31 | AUAUUAAUCGGAAGGAGCGGUACAUGAGGAUCACCCAUGUGCGAAGCCAGCAGAUCCCGUUACCAGGUAGGUCGCCGAGUUAUGA [Begebe] | 37.5
32 | AUCCAUAGCCGAAGGAGCGCAGUAGGAUGACAUGAGGAUCACCCAUGUGUGUGAUGUGGAUUGCAGGUAGGUCGCGGAGUGGGUU [Exclusion - Arginine B (Freestyle 7)] | 134
33 | UUAUAUAUGCGAAGGAGCGGGAAAUAUAUAUAUAUAAUCCUAACAUGAGGAUCACCCAUGUCCCAGGUAGGUCGCGCAUAUAUGG [12.E] | 95.1
34 | GGUUGGUGUGGAGACAUAUUGAUUACUGAAGGAGCGGGAAUAAACCCAGGUAGGUCGCAGAGAUCCACAUGAGGAUCACCCAUGU [!0.P] | 41.2
35 | GGCACAUAGUCGGCCGCCACUAGUGGGAAAUGGGAGAACAUGAGGAUCACCCAUGUAGCGUAGCCUAGGACCGGGACUAUGUGCC [Elephant] | 231
36 | CGAUAUGGGACGGCCGCCACUAUUAUGUAACAAAAUAAACAUGAGGAUCACCCAUGUACAUGGGAUAGGACCGGGUCCUAUAACG [#22 Same State - Tryptophan B] | 46.2

— the supplement of paper PMC9170038
